For assay [1], the target named is HLA-DP DPB1*0101 (human). Briefly: inhibition of radiolabeled peptide binding to purified HLA-DP.
Assay [2] has as its target HLA-DP DPB1*0402 (human). Described as above.
In assay [3] the target is HLA-DP DPB1*0501 (human). Described as above.
The target in assay [4] is HLA-DR molecule DRB1*0162 (so in the source) (human). Briefly: radiolabeled-peptide competition on purified HLA class II.
The target in assay [5] is HLA DP molecule DPB1*2001 (human). Briefly: inhibition of radiolabeled peptide binding to purified HLA DP.
The target of assay [6] is HLA-DQ molecule DQB1*0502 (human). Description: competition: inhibition of radiolabeled peptide binding to purified HLA.
The target in assay [7] is HLA-DQ molecule DQB1*0503 (human). The description is as above.
Assay [8] concerns the target HLA DP molecule DPB1*1401 (human). Briefly: inhibition of radiolabeled peptide binding to purified HLA DP.
The target in assay [9] is HLA-DQ molecule DQB1*0602 (human). Briefly: competition: inhibition of radiolabeled peptide binding to purified HLA.
Assay [10] concerns the target HLA-DQ molecule DQB1*0202 (human). The assay is described as above.
The target in assay [11] is HLA DP molecule DPB1*1401 (human). Description: competition vs radiolabeled peptide, purified HLA-DP.
Assay [12] addresses HLA DP molecule DPB1*2001 (human). Described as above.
Assay [13] has as its target HLA-DP DPB1*1401 (human). Description: inhibition of radiolabeled peptide binding to purified HLA-DP.
Assay [14] addresses HLA-DP DPB1*2001 (human). The assay is described as above.

Broadly, the IC50 is the concentration needed to halve the response being measured. Low readings indicate inhibition by little substance, high ones a need for much substance.

In the case of Aln g 1 (11-25) peptide 3324.0004, the IC50 was determined as 85 nM in [1], 1500 nM in [2] and 493 nM in assay [3].
In the case of Aln g 1 (111-125) peptide 3324.0007, the IC50 in assay [1] amounted to 391 nM; in assay [3], 3.3 nM.
Take “Alt a 1 peptide 3324.0013 (position 111)”: the IC50 in assay [4] is 856 nM.
The same measure, in the same setting: as for “Alt a 1 peptide 3324.0014 (position 116)”, the figure is 504 nM; as for Alt a 1 peptide 3324.0015 (position 6), 871 nM.
As to Alt a 1 peptide 3324.0017 (position 11), the IC50 in [4] turned out to be 956 nM.
On to “Alt a 1 peptide, position 6 (Peptide ID 3324.0015)”, for which the IC50 in assay [5] is 2090 nM.
As for “Alt a 1 peptide, position 6, Peptide ID 3324.0015”, the IC50 was 7020 nM in assay [6] and 7260 nM in [7].
“Alt a 1 peptide, position 11 (Peptide ID 3324.0017)”: the IC50 was 125 nM in assay [8] and 184 nM in assay [5].
Regarding “Alt a 1 peptide, position 11, Peptide ID 3324.0017”, the results for the IC50 in assay [6], in assay [7] and in [9] were 8000 nM, 223 nM and 21 nM, respectively.
“Alt a 1 peptide, position 111 (Peptide ID 3324.0013)” gave an IC50 in assay [8] of 4370 nM.
On to “Alt a 1 peptide, position 111, Peptide ID 3324.0013”, for which the IC50 was 8360 nM in assay [10] and 19400 nM in assay [7].
With “Alt a 1 peptide, position 116 (Peptide ID 3324.0014)”, the IC50 in assay [5] stood at 200 nM.
As to “Alt a 1 peptide, position 116, Peptide ID 3324.0014”, the results for the IC50 in assay [6] and in assay [9] were 8970 nM and 2230 nM, respectively.
For the substance “Alt a 1 peptide, position 141 (Peptide ID 3324.0011)”, the IC50 in assay [8] was determined as 3390 nM; in assay [5], 8830 nM.
Take “Alt a 1 peptide, position 143 (Peptide ID 3324.0016)”: the IC50 in [8] came to 1430 nM; in [5], 8650 nM.
As to “Alt a 5 peptide, position 51, … (Peptide ID 3324.0065)”, the IC50 worked out at 50 nM in [11] and 7500 nM in [12].
With “Alt a 6 peptide, position 161, … (Peptide ID 3324.0073)”, the IC50 in assay [12] was 7640 nM.
Consider “Alt a 7 peptide, position 190, … (Peptide ID 3324.0080)”, for which the IC50 was 938 nM in assay [11] and 77 nM in assay [12].
Bet v 1 (96-110) peptide 3324.0353: the figures for the IC50 in assay [1], in assay [13] and in [14] were 4090 nM, 5980 nM and 5920 nM, respectively.
As to Bet v 1 (111-125) peptide 3324.0352, the IC50 in assay [1] was 279 nM; in [3] it was 2.2 nM; in assay [13], 7590 nM; in assay [14], 13000 nM.
Take Bet v 6 (206-220) peptide 3324.0387: the IC50 in assay [13] was 3770 nM; in [14], 3.3 nM.
Regarding Bet v 6 (211-225) peptide 3324.0386, the IC50 in assay [1] turned out to be 1610 nM; in assay [3], 1050 nM.
On to Cha o 1 (86-100) peptide 3324.0517, for which the figures for the IC50 in assay [3] and in assay [14] were 11 nM and 83 nM, respectively.
As for “Cha o 1 peptide 96-110 … (Peptide ID 3324.0523)”, the IC50 worked out at 7500 nM in assay [3], 525 nM in [13] and 4960 nM in [14].
In assay [12], “Cla h 5 peptide, position 6, … (Peptide ID 3324.0576)” yielded an IC50 of 143 nM.
As to “Cla h 6 peptide, position 161, … (Peptide ID 3324.0588)”, the IC50 worked out at 9670 nM in [11] and 29600 nM in assay [12].
Consider “Cla h 8 peptide, position 151, … (Peptide ID 3324.0603)”, for which the IC50 in [11] amounted to 36 nM.
In the case of “Cup a 1 peptide 66-80 … (Peptide ID 3324.0604)”, the IC50 worked out at 6940 nM in [1], 29 nM in [13] and 23900 nM in [14].
On to “Cup a 1 peptide 71-85 … (Peptide ID 3324.0607)”, for which the IC50 in assay [1] turned out to be 692 nM; in assay [13] it was 3580 nM; in assay [14] it was 13600 nM.
For the substance “Cup a 1 peptide 316-330 … (Peptide ID 3324.0606)”, the IC50 in assay [1] is 8240 nM; in [13], 155 nM; in [14] it was 25500 nM.
For the substance “Cup s 1 peptide 86-100 … (Peptide ID 3324.0615)”, the IC50 in [1] came to 676 nM; in assay [14], 9180 nM.
With “Cup s 1 peptide 91-105 … (Peptide ID 3324.0618)”, the IC50 in assay [1] turned out to be 806 nM; in [2], 75 nM; in [3], 179 nM; in assay [14] it was 35400 nM.
As for “Cup s 1 peptide 96-110 … (Peptide ID 3324.0624)”, the IC50 in [1] was 2360 nM; in assay [14], 25700 nM.
Regarding “Dac g 2 peptide 11-25 … (Peptide ID 3324.0657)”, the IC50 in [13] amounted to 8100 nM; in [14], 6270 nM.
For the substance “Dac g 2 peptide 16-30 … (Peptide ID 3324.0658)”, the IC50 in assay [1] came out at 1350 nM; in assay [3], 717 nM; in [13] it was 32000 nM.
Substance “Dac g 4 peptide 1-15 … (Peptide ID 3324.0663)” gave an IC50 in assay [3] of 1440 nM.
In [1], Der f 1 (136-150) peptide 3324.0666 came in with an IC50 of 8430 nM.
In assay [14], Der p 1 (131-145) peptide 3324.0832 displayed an IC50 of 7.7 nM.
For Der p 1 (136-150) peptide 3324.0829, the IC50 in assay [1] came out at 1200 nM; in assay [3] it was 4930 nM; in assay [13], 9420 nM; in assay [14], 449 nM.
With Der p 1 (176-190) peptide 3324.0831, the IC50 in assay [3] stood at 35200 nM.
Der p 1 (226-240) peptide 3324.0840: the IC50 in assay [2] was determined as 32 nM; in assay [3] it was 4000 nM; in assay [14], 310 nM.
Turning to Der p 4 (96-110) peptide 3324.0987, the IC50 in assay [1] was 15500 nM; in [3] it was 3450 nM; in [14] it was 2930 nM.
As to Der p 4 (251-265) peptide 3324.0976, the IC50 in assay [14] came to 247 nM.
As to Der p 4 (321-335) peptide 3324.0977, the IC50 in assay [1] was determined as 1640 nM; in assay [3] it was 5070 nM; in assay [14] it was 1000 nM.
Consider Der p 4 (381-395) peptide 3324.0986, for which the IC50 in assay [1] was determined as 324 nM.
For the substance Der p 4 (386-400) peptide 3324.0978, the IC50 was determined as 2230 nM in [3] and 9000 nM in assay [14].
Turning to Der p 4 (411-425) peptide 3324.0980, the IC50 came out at 400 nM in [1], 1510 nM in assay [2], 703 nM in [13] and 6.9 nM in assay [14].
As to Der p 4 (416-430) peptide 3324.0974, the IC50 came to 9.1 nM in [1], 13 nM in [3] and 3.5 nM in [14].
As to Der p 4 (476-490) peptide 3324.0975, the IC50 is 323 nM in assay [1], 83 nM in assay [2], 76 nM in assay [3] and 379 nM in assay [14].
With Der p 4 (482-496) peptide 3324.0971, the IC50 worked out at 173 nM in assay [1], 66 nM in [2], 11400 nM in assay [13] and 509 nM in [14].
In assay [14], “Lol p 2 peptide 51-65 … (Peptide ID 3324.1139)” gave an IC50 of 7940 nM.
The substance “Lol p 2 peptide 56-70 … (Peptide ID 3324.1140)” showed an IC50 in assay [3] of 12400 nM.
For the substance “Lol p 11 peptide 111-125 … (Peptide ID 3324.1138)”, the results for the IC50 in assay [1], in assay [3] and in [14] were 205 nM, 0.25 nM and 223 nM, respectively.
Regarding “Lol p 11 peptide 116-130 … (Peptide ID 3337.0029)”, the IC50 in assay [3] worked out at 51 nM; in [13], 18100 nM; in [14] it was 8.1 nM.
With “Que a 1 peptide 11-25 … (Peptide ID 3324.1587)”, the IC50 in assay [1] stood at 114 nM; in assay [3], 341 nM.
In the case of “Que a 1 peptide 16-30 … (Peptide ID 3324.1585)”, the IC50 turned out to be 17 nM in [1], 80 nM in [3] and 274 nM in assay [14].
On to “Que a 1 peptide 21-35 … (Peptide ID 3324.1588)”, for which the IC50 in assay [1] amounted to 141 nM; in assay [3], 242 nM; in assay [14], 3490 nM.
With “Que a 1 peptide 141-155 … (Peptide ID 3324.1584)”, the IC50 in [1] worked out at 21 nM; in assay [3], 31 nM; in assay [13] it was 40 nM; in assay [14] it was 1300 nM.
Regarding “Sal k 1 1 peptide 191-205, … (Peptide ID 3324.1590)”, the values for the IC50 in assay [1], in [13] and in assay [14] were 922 nM, 1920 nM and 558 nM, respectively.
On to “Sal k 1 1 peptide 321-335, … (Peptide ID 3324.1589)”, for which the IC50 came out at 56 nM in [1] and 4880 nM in [14].

The values are drawn from patent US20150004189A1.
